B1: LINE1-full (parent)
chain: UACGUAGGUGGUUUUCCCCUGAUAGUGCUAAGGGGGCCUGGAAGUUUGGACUGGGCAGAGCUCAACACAGCGUGGCAAAGUGGCUGUGGCUAGACUGCCUCUCUGGAUUCCUCGUCACUCAGCAGGGCAUCUCUGAGAGAAAUGCC

In this data set the parent is B1. As to the kind of experiment: self-cleavage, relative activity (ratio to wild type); higher = more cleavage; in vitro, sequencing; the parent is a self-cleaving ribozyme.
On to U12C U14C, for which the self-cleavage amounted to 1.12.
Take U9C G75A: the self-cleavage turned out to be 1.4.
Turning to G11A U119C, the self-cleavage was 0.93.
As for G11A A64C, the figure is 0.1; as for U9C G122C, 0.
The value for U12C U52G was 1.84; that for U12C U52C was 1.11.
U9C G86A: the self-cleavage was 0.16.
As for U12C A50G, the figure is 1.15.
As for U12C A50U, the figure is 1.54; as for G10U A42G, 0; as for U12A A107U, 1.61.
As for U12C, the figure is 1.29; as for U12A, 1.17; as for U9G U47C, 0.54.
With U9G A117U, the self-cleavage worked out at 1.07.
In the case of U9G A117G, the self-cleavage was found to be 1.31.
The value for U12A U112C was 1.3.
As for U9G U12A, the figure is 0.16; as for G11U A59U, 1.02.
U12A A43G: the self-cleavage stood at 0.85.
As for G10A U104A, the figure is 0.91; as for U12C G36C, 0.95; as for G11A G139A, 1.91.
Take U12C A59G: the self-cleavage amounted to 0.15.
The value for G10A U143C was 1.4.
The value for U12A U91A was 0.82; that for U12A U91C was 0.54.
As to G10A A142G, the self-cleavage worked out at 1.42.
As for G10C G55A, the figure is 0.6; as for U9C A140G, 1.19.
Turning to U9C A140U, the self-cleavage was 1.35.
As for U9C U96G, the self-cleavage was 0.
On to U12C U45C, for which the self-cleavage is 0.98.
On to U12C U45G, for which the self-cleavage was found to be 1.35.
Take U12C U45A: the self-cleavage is 0.88.
For U9C U81C, the self-cleavage was determined as 1.21.
As for U9C U81A, the figure is 1.95; as for G11A U104C, 1.59; as for U9C C116G, 1.21.
The value for U12C C19U was 1.08; that for U12C C116U was 0.77.
As for G11A C84U, the figure is 0.15; as for G10A U96C, 0.16.
For U9C U52G, the self-cleavage came out at 1.69.
As for G10A U73A, the figure is 1.55.
U12C G35U: the self-cleavage was 1.53.
Regarding G11A A94G, the self-cleavage is 0.08.
As for U12A U62C, the figure is 0.12.
As for U12A U62G, the self-cleavage was 0.06.
For the variant U12A U62A, the self-cleavage amounted to 0.05.
The value for G10A U119C was 1; that for G10A U119A was 0.93.
The value for U12C G72A was 1.25; that for G11U C118U was 0.91.
The value for U9C U20C was 1.05.
On to U9C U20G, for which the self-cleavage was 1.16.
As for U9C U29C, the figure is 1.72.
Take U12C U26A: the self-cleavage came out at 1.03.
Take U12C U26C: the self-cleavage was 1.39.
As for U9C G139A, the figure is 1.09; as for U9C C95U, 0.19.
U9C C18U: the self-cleavage is 1.
The value for G11U was 1.56; that for G11A was 1.31.
Regarding G11C, the self-cleavage turned out to be 1.42.
The value for U12C U39G was 0.84.
Take G10A A117U: the self-cleavage came out at 1.21.
Consider U9C U13A, for which the self-cleavage turned out to be 1.11.
As for U9C U13C, the figure is 1.19; as for G11C U109C, 2.63; as for U12A U14A, 0.27.
As for U9C C90U, the figure is 0.09; as for U9C C90G, 0.09.
On to U9C G49U, for which the self-cleavage amounted to 1.08.
As for U12C G34C, the figure is 1.34.
For U12C A117G, the self-cleavage is 1.84.
The value for U12A U52G was 2.35.
Regarding G10U A138U, the self-cleavage turned out to be 1.
As to U12A G53C, the self-cleavage is 1.12.
Consider U12A A57G, for which the self-cleavage was 1.23.
As for U9C U85A, the figure is 0.17.
With U9C U85C, the self-cleavage turned out to be 0.3.
Take U12A G72A: the self-cleavage came out at 1.41.
As to U9C G34U, the self-cleavage came out at 1.09.
As for U12C A129C, the figure is 1.99.
On to U12C A129U, for which the self-cleavage worked out at 1.53.
As for U12C A136U, the figure is 1.43.
The value for U12C A124U was 1.29.
On to G10A A141G, for which the self-cleavage was 0.94.
For U9G U14C, the self-cleavage came out at 0.68.
Consider G11A C120U, for which the self-cleavage is 1.35.
As for U9C G54A, the figure is 0.65.
As for U12C G41U, the self-cleavage is 1.25.
In the case of U9C U47A, the self-cleavage was 1.18.
For U9C U47C, the self-cleavage amounted to 1.45.
The value for U9C G11A was 1.07; that for U9C U62C was 0.18.
For the variant U9C U104A, the self-cleavage stood at 1.4.
For G10A U100C, the self-cleavage is 0.49.
In the case of U12A U45G, the self-cleavage turned out to be 1.33.
As for G10A U52A, the figure is 0.97; as for U12C A31G, 1.24.
Take U12C C113A: the self-cleavage came to 0.64.
As for U12C C113U, the figure is 0.76; as for U12A A30U, 1.63.
U12C C99G: the self-cleavage was 0.63.
As for U12A U87A, the figure is 0.11; as for U9C U73A, 1.58; as for U9C U73C, 1.27.
Take G11U A42G: the self-cleavage turned out to be 1.58.
Consider G11A A43G, for which the self-cleavage amounted to 1.42.
U9C C113U: the self-cleavage was determined as 1.08.
Consider U9C C113A, for which the self-cleavage is 1.2.
As for G10A A65G, the figure is 0.02; as for G10A A65U, 0.14; as for U12C G135U, 1.57.
As for U12C C146A, the figure is 1.45; as for U12C C146U, 1.63; as for U9C U143A, 1.28.
As for U12A U85C, the figure is 0.2; as for U12A A141U, 0.64; as for U9C G44A, 0.69.
Turning to G11A U132C, the self-cleavage was 1.03.
For U9C G72A, the self-cleavage turned out to be 1.34.
As for U9C G60C, the figure is 0.07.
As for U9C G82A, the figure is 2.23; as for G11A U26C, 1.4.
The value for U12C A57G was 1; that for U12C A77U was 1.26.
As for U12C A77G, the self-cleavage stood at 1.8.
As for G11A A138G, the figure is 1.93; as for U12A C51A, 1.16; as for G11C A50G, 0.71.
As for U9G U112C, the figure is 0.73; as for U12C C131U, 1.29.
The value for G11A G126A was 1.2; that for U12C C120U was 1.43.
Take U12C C120A: the self-cleavage was determined as 1.47.
The value for U9C C51A was 0.63.
Take U12A A124G: the self-cleavage came out at 0.87.
As for U12A A124U, the figure is 1.23; as for U12A U119C, 1.54.
The value for U9C G114A was 1.42.
As for U12C G49A, the figure is 1.28; as for U9C U14C, 1.18.
With G10A A31G, the self-cleavage worked out at 0.45.
The value for G11U A69G was 0.44; that for G10A U112C was 1.66; that for G10A A64G was 0.22.
On to U9C G127U, for which the self-cleavage was determined as 1.45.
As for U12A U96C, the figure is 0.28.
As for U9C G55A, the figure is 0.48; as for U9C G55U, 0.37.
As for U9C U15A, the figure is 0.5; as for U9C U15G, 1.09; as for U9C U15C, 1.28.
Turning to U9C U45G, the self-cleavage worked out at 1.56.
U9C A138U: the self-cleavage was determined as 1.92.
U12C C38U: the self-cleavage is 1.16.
For U12A A94U, the self-cleavage was 0.51.
As for U12A A92G, the figure is 0; as for U9C C56U, 0.37.
As for U12A G21A, the figure is 1.08; as for G10A U134C, 1.5.
As for G10A G48U, the figure is 0.89; as for U12A U13A, 1.08.
